The experiment has as its target T1, human CD127 (IL-7R), as used in the scFv binding experiments (human, UniProt P16871 21-239, limits assumed).
T1 construct: also called IL-7Ralpha; interleukin-7 receptor subunit alpha
T1 sequence: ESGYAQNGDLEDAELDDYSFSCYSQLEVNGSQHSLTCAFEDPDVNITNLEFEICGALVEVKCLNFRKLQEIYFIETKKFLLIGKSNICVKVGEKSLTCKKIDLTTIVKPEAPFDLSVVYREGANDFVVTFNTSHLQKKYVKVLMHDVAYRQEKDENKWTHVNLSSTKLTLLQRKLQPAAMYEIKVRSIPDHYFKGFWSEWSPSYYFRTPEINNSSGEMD
Kind of experiment: scFv binding experiment, given as ED50; method and format not stated (FIG. 1A).

B1: scFv703-Fc (VL-VH) (Fc fusion)
scFv: DIVLTQSPSSLPVTPGEPASISCRSSQSLLTVKGITSLYWFLQKPGQSPKLLIYRMSNRDSGVPDRFSGSGSETDFTLKISRVEAEDVGTYYCAQFLEYPHTFGAGTKLELKGGGGSGGGGSGGGGSAVQLVESGGGLVQPGGSLKITCAASGFTFTNAAMYWVRQAPGKGLEWVARIRTKANNYATYYADSVKGRFTISRDDSKSTVYLQMDSVKTEDTATYYCIVVVLTTTRDYFDYWGQGVLVTVSS
notes: The Fc is not described; also called scFv703LH; VL-VH scFv of OSE703; not shown: The Fc part implied by the name scFv703-Fc, and any hinge or linker to it
On to B1, for which the half-maximal effective concentration (EC50) (as a rule, the midpoint of the concentration-response curve) worked out at 0.539 µg/mL.

B2: scFv703-Fc (VH-VL) (Fc fusion)
scFv: AVQLVESGGGLVQPGGSLKITCAASGFTFTNAAMYWVRQAPGKGLEWVARIRTKANNYATYYADSVKGRFTISRDDSKSTVYLQMDSVKTEDTATYYCIVVVLTTTRDYFDYWGQGVLVTVSSGGGGSGGGGSGGGGSDIVLTQSPSSLPVTPGEPASISCRSSQSLLTVKGITSLYWFLQKPGQSPKLLIYRMSNRDSGVPDRFSGSGSETDFTLKISRVEAEDVGTYYCAQFLEYPHTFGAGTKLELK
notes: The Fc is not described; also called scFv703HL; VH-VL scFv of OSE703; not shown: The Fc part implied by the name scFv703-Fc, and any hinge or linker to it
On to B2, for which the midpoint of the response, the EC50, lay at 3.32 µg/mL.

The values above are taken from patent US20230087125A1 (Memorial Sloan Kettering, published 2023).
